Sequences and labels used below:
B1: MSPS, purified recombinant human Protein S obtained from FUT8 knockout CHO/DG44 cells (other)
chain: ANSLLEETKQGNLERECIEELCNKEEAREVFENDPETDYFYPKYLVCLRSFQTGLFTAARQSTNAYPDLRSCVNAIPDQCSPLPCNEDGYMSCKDGKASFTCTCKPGWQGEKCEFDINECKDPSNINGGCSQICDNTPGSYHCSCKNGFVMLSNKKDCKDVDECSLKPSICGTAVCKNIPGDFECECPEGYRYNLKSKSCEDIDECSENMCAQLCVNYPGGYTCYCDGKKGFKLAQDQKSCEVVSVCLPLNLDTKYELLYLAEQFAGVVLYLKFRLPEISRFSAEFDFRTYDSEGVILYAESIDHSAWLLIALRGGKIEVQLKNEHTSKITTGGDVINNGLWNMVSVEELEHSISIKIAKEAVMDINKPGPLFKPENGLLETKVYFAGFPRKVESELIKPINPRLDGCIRSWNLMKQGASGIKEIIQEKQNKHCLVTVEKGSYYPGSGIAQFHIDYNNVSSAEGWHVNVTLNIRPSTGTGVMLALVSGNNTVPFAVSLVDSTSEKSQDILLSVENTVIYRIQALSLCSDQQSHLEFRVNRNNLELSTPLKIETISHEDLQRQLAVLDKAMKAKVATYLGGLPDVPFSATPVNAFYNGCMEVNINGVQLDLDEAISKHNDIRAHSCPSVWKKTKNS
modifications: gamma-carboxylated glutamic acid (Gla) in the Gla domain; complex type N-glycoside-linked sugar chains without fucose (fucose not detected)
notes: It differs from KCPS only in glycosylation (no core fucose); also called fucose-free recombinant Protein S

For test [1], the target named is KCPS, purified recombinant human Protein S obtained from CHO/DG44 cells (human) (UniProt P07225). Kind of test: SPR (Biacore T100), KCPS immobilised on CM5, C-17 as analyte. (In general: SPR reads the build-up and loss of mass on a sensor chip optically.)
The target in test [2] is human plasma-derived Protein S (manufactured by Calbiochem) (human) (UniProt P07225). Description: SPR (Biacore T100), Protein S immobilised on CM5, C-17 as analyte.
Test [3] deals with MSPS, purified recombinant human Protein S obtained from FUT8 knockout CHO/DG44 cells (human) (UniProt P07225). Kind of test: SPR (Biacore T100), MSPS immobilised on CM5, C-17 as analyte.
The target in test [4] is T1, recombinant human RAGE-Fc fusion protein (manufactured by R&D Systems) (human, UniProt Q15109 24-344).
T1 construct: Bought fusion protein; also called recombinant soluble RAGE-human IgG1 Fc chimeric protein; not shown: Fc of human IgG1
Description: SPR (Biacore T100), Protein S immobilised on CM5, RAGE-Fc as analyte.

The target of test [5] is T2, human plasma-derived complement C4 binding protein (C4BP; manufactured by BioMed) (human, UniProt P04003 49-597; P20851 18-252).
T2 construct: mature; Bought plasma protein; also called Human C4BP
T2 sequence (looked up) 1: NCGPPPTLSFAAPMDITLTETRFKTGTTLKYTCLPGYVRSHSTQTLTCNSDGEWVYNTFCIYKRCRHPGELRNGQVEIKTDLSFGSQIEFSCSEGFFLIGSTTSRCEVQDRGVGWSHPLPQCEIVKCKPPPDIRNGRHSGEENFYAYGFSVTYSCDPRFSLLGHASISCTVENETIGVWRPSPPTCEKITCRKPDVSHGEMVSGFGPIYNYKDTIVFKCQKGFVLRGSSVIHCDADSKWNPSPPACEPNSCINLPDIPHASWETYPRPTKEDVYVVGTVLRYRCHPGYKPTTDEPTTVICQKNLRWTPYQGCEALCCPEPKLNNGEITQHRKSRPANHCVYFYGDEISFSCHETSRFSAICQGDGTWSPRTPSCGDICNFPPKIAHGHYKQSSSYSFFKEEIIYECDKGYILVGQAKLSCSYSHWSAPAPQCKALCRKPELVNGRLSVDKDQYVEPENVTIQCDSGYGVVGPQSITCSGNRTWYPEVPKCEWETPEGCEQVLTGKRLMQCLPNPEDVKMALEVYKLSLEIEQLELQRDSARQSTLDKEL
T2 sequence (looked up) 2: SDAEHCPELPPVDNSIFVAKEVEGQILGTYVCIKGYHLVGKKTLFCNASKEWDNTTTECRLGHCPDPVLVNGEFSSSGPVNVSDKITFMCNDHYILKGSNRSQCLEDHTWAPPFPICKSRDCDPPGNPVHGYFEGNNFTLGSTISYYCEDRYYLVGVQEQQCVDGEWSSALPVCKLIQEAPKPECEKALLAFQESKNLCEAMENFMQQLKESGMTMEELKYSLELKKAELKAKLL
Kind of test: SPR (Biacore T100), MSPS immobilised on CM5, C4BP as analyte. The text has this:
(§1) Using an amine coupling kit (manufactured by Biacore), human plasma-derived Protein S (manufactured by Calbiochem), and recombinant human Protein S prepared in Example 4, MSPS and KCPS were respectively immobilized on flow cells of a CM5 sensor chip (manufactured by Biacore). An immobilized amount of the ligand protein on the respective flow cells was set to the range of 1500 to 2000 RU. Then, an anti-human Protein S antibody C-17 (manufactured by Santa Cruz) (FIG. 7), or a human plasma-derived complement C4 binding protein (manufactured by BioMed) diluted to given concentrations (50000, 25000, 12500, 6250, 3125, and 1562 ng/mL) using HBS-EP+buffer (manufactured by Biacore), as an analyte, was allowed to run and bind to the ligand-immobilized flow cells at a temperature of 25° C., a flow rate of 5 μL/min, association time of 140 seconds, and dissociation time of 240 seconds. The anti-human Protein S antibody C-17 and the human plasma-derived complement C4 binding protein are known to bind to the sex hormone-binding globulin-like domain (SHBG domain) at the carboxyl terminal of Protein S. The chip was regenerated by a flow of an aqueous glycine solution (pH 1.5) (manufactured by Biacore) for 60 seconds. Dissociation constants calculated by analysis of the obtained data using Biacore T100 evaluation software ver 1.1 (manufactured by Biacore) are given in Table 2 below.

Test [6] concerns the target T2, human plasma-derived complement C4 …. Description: SPR (Biacore T100), Protein S immobilised on CM5, C4BP as analyte.
Source text: as §1

In test [7] the target is B1. Kind of test: SPR (Biacore T100), Protein S immobilised on C1 chip, CD14 as analyte. How it is done:
Using an amine coupling kit, human plasma-derived Protein S, and recombinant human Protein S prepared in Example 3, MSPS were respectively immobilized at 700 to 800 RU on flow cells of a Series S C1 sensor chip (manufactured by Biacore). Then, the experiment was carried out in the same manner as in Example 5, using a recombinant human CD14 protein (manufactured by R&D systems) diluted to given concentrations (25000, 12500, 6250, 3125, and 1562 ng/mL) using HBS-EP+buffer (manufactured by Biacore), as an analyte.

For test [8], the target named is T3, human plasma-derived antithrombin III (manufactured by Calbiochem) (human, UniProt P01008 33-464, four asparagine-linked sugar chains without core alpha1,6-fucose).
T3 construct: mature; Bought plasma protein; also called human plasma antithrombin III
Description: SPR (Biacore T100), antithrombin III immobilised on CM5 chip, LCA as analyte. How it is done: The abscissa represents time (seconds), and the ordinate represents a binding activity of LCA to a glycoprotein on a sensor chip of Biacore T100. From the top, each sensorgram represents a value obtained when LCA was allowed to run at concentrations of 50000, 25000, 12500, 6250, 3125 and 0 ng/mL. The top represents the binding between human plasma Protein S and LCA, and the bottom represents the binding between human plasma antithrombin III and LCA.
Next, in order to analyze the binding mode of fucose added to the sugar chain of the human plasma-derived Protein S, the binding between core α1,6-fucose-specific lectin, Lens culinaris agglutinin (LCA) lectin and Protein S was analyzed by surface plasmon resonance. Using an amine coupling kit (manufactured by Biacore), human plasma-derived Protein S (manufactured by Calbiochem) and human plasma-derived antithrombin III (manufactured by Calbiochem) were respectively immobilized on flow cells of a CM5 sensor chip (manufactured by Biacore). The human plasma-derived antithrombin III is a glycoprotein having four asparagine-linked sugar chains, but these sugar chains are known not to have core α1,6-fucose (WO2005/035563). An immobilized amount of the ligand protein on the respective flow cells was set to the range of 2000 to 3000 resonance units (hereinafter referred to as “RU”). […]

T3 sequence (P01008 33-464): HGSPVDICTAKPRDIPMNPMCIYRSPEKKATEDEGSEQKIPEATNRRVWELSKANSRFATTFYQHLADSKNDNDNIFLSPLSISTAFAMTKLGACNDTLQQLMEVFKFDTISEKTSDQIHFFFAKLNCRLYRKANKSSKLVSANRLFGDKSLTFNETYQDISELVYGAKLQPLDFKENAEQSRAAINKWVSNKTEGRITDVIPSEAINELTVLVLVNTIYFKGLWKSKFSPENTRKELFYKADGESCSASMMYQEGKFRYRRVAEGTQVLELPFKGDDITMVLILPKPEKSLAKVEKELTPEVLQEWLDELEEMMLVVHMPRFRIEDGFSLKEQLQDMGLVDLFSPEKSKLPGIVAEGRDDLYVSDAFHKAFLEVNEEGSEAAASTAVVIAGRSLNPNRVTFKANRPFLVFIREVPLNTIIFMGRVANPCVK
T1 sequence (Q15109 24-344 limits assumed): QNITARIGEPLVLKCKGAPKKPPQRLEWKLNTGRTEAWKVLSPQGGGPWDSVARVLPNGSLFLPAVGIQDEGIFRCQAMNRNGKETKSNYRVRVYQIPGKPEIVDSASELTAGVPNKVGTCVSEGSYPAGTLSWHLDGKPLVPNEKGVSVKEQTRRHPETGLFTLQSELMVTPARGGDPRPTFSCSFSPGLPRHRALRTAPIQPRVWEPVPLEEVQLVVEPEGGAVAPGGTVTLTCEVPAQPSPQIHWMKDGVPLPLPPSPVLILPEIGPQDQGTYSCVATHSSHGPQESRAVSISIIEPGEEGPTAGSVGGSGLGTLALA

In general, Kd refers to the concentration at which binding is half-saturated. In the case of “anti-human Protein S antibody C-17 (manufactured by Santa Cruz)”, the equilibrium dissociation constant (Kd) came out at 220 nM in test [1], 230 nM in test [2] and 240 nM in test [3]. For B1, the “fold affinity for RAGE against human plasma Protein S” value in test [4] is roughly 7 fold. In test [5], this molecule displayed a dissociation constant Kd of 92 nM.

B2: human plasma-derived Protein S (manufactured by Calbiochem) (other)
chain: ANSLLEETKQGNLERECIEELCNKEEAREVFENDPETDYFYPKYLVCLRSFQTGLFTAARQSTNAYPDLRSCVNAIPDQCSPLPCNEDGYMSCKDGKASFTCTCKPGWQGEKCEFDINECKDPSNINGGCSQICDNTPGSYHCSCKNGFVMLSNKKDCKDVDECSLKPSICGTAVCKNIPGDFECECPEGYRYNLKSKSCEDIDECSENMCAQLCVNYPGGYTCYCDGKKGFKLAQDQKSCEVVSVCLPLNLDTKYELLYLAEQFAGVVLYLKFRLPEISRFSAEFDFRTYDSEGVILYAESIDHSAWLLIALRGGKIEVQLKNEHTSKITTGGDVINNGLWNMVSVEELEHSISIKIAKEAVMDINKPGPLFKPENGLLETKVYFAGFPRKVESELIKPINPRLDGCIRSWNLMKQGASGIKEIIQEKQNKHCLVTVEKGSYYPGSGIAQFHIDYNNVSSAEGWHVNVTLNIRPSTGTGVMLALVSGNNTVPFAVSLVDSTSEKSQDILLSVENTVIYRIQALSLCSDQQSHLEFRVNRNNLELSTPLKIETISHEDLQRQLAVLDKAMKAKVATYLGGLPDVPFSATPVNAFYNGCMEVNINGVQLDLDEAISKHNDIRAHSCPSVWKKTKNS
modifications: gamma-carboxylated glutamic acid (Gla) in the N-terminal Gla domain; complex type N-glycoside-linked sugar chains (Asn458, Asn468, Asn489), partly with core alpha1,6-fucose (Fuc 0.26 per Man 3.00)
notes: Bought protein purified from human plasma; also called native Protein S; Human plasma Protein S
For the molecule B2, the Kd in test [6] worked out at 101 nM.

B3: recombinant human CD14 protein (manufactured by R&D systems) (receptor, UniProt P08571 20-352, looked up)
chain: TTPEPCELDDEDFRCVCNFSEPQPDWSEAFQCVSAVEVEIHAGGLNLEPFLKRVDADADPRQYADTVKALRVRRLTVGAAQVPAQLLVGALRVLAYSRLKELTLEDLKITGTMPPLPLEATGLALSSLRLRNVSWATGRSWLAELQQWLKPGLKVLSIAQAHSPAFSCEQVRAFPALTSLDLSDNPGLGERGLMAALCPHKFPAIQNLALRNTGMETPTGVCAALAAAGVQPHSLDLSHNSLRATVNPSAPRCMWSSALNSLNLSFAGLEQVPKGLPAKLRVLDLSCNRLNRAPQPDELPEVDNLTLDGNPFLVPGTALPHEGSMNSGVVPAC
notes: Bought
As for B3, the binding result in test [7] was “binds”.

B4: Lens culinaris agglutinin (LCA) lectin (manufactured by Vector Laboratories) (other)
chain 1: TETTSFSITKFSPDQKNLIFQGDGYTTKGKLTLTKAVKSTVGRALYSTPIHIWDRDTGNVANFVTSFTFVIDAPSSYNVADEFTFFIAPVDTKPQTGGGYLGVFNSKEYDKTSQTVAVEFDTFYNAAWDPSNKERHIGIDVNSIKSVNTKSWNLQNGERANVVIAFNAATNVLTVTLTYP
chain 2: VTSYTLNEVVPLKDVVPEWVRIGFSATTGAEFAAHEVHSWSFHSELGGTSSS
notes: A lectin; also called lentil lectin
For the molecule B4, the binding result in test [8] is reported as “no binding (tested: 50000 ng/mL)”.

Source of the values: patent US20100162418A1 (Kyowa Kirin, published 2010).
